From publication PMC4182809

Molecular target: plastidic glutamine synthetase (GS2), spinach, 420 kDa stromal holoenzyme (spinach (Spinacia oleracea), endogenous in leaf chloroplasts)
Experiment: native gel or EMSA; BN-PAGE (4-16% Bis-Tris gradient gel, 4°C) of stroma and thylakoid proteins of chloroplasts, western blot, with 2D SDS-PAGE; extraction in 20 mM Hepes-KOH pH 7.5, or potassium phosphate pH 6 or pH 8 with or without 0.1 M NaCl, 10 mM DTT or 10 mM ascorbic acid

plastidic glutamine synthetase (GS2), spinach, 420 kDa stromal holoenzyme
stoichiometry N: 10
